Data set [1] has as its target T1, DDX1 (DDX1-728) (Homo sapiens, UniProt Q92499 1-728).
T1 sequence: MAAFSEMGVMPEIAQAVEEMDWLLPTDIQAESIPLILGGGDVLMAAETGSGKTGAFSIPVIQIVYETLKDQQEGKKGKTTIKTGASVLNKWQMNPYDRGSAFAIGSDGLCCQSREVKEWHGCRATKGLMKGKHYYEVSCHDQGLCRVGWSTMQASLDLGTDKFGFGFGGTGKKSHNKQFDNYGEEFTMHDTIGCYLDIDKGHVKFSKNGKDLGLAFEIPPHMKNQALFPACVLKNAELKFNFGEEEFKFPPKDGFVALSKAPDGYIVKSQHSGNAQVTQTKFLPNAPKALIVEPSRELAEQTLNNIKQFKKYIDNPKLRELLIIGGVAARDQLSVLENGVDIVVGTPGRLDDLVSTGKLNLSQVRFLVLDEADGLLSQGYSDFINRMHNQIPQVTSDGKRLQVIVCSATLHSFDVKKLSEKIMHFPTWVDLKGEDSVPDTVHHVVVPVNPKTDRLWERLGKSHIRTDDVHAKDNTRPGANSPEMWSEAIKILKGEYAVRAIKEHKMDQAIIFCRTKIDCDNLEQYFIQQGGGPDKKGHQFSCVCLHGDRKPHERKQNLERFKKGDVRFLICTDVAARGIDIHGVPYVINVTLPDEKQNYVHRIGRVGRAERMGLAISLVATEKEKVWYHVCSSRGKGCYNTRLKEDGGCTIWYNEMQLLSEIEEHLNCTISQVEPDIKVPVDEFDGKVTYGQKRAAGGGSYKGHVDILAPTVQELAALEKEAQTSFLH
Nature of the data set: EMSA. A general note: A gel shift assay detects complexes by their altered migration in electrophoresis.

For data set [2], the target named is T1, DDX1 (DDX1-728). Nature of the data set: mantdADP displacement fluorescence titration, global fit.

For orientation: Kd means the free concentration of one partner at which half of the binding sites on the other are occupied at equilibrium, for simple one-to-one binding. A higher Kd goes with lower affinity.

As for UUUUUUUUUU (ssRNA) [10mer polyU RNA, FAM], the binding result in the data set with DDX1 (DDX1-728) [1] is reported as “binds”.
Still for that read-out and setting: with AGCACCGUAAAGA (ssRNA) [13mer mixed sequence RNA, FAM] the entry was “binds”.
Molecule AAAAAAAAAA (ssRNA) [10mer polyA RNA] registered a Kd with DDX1 (DDX1-728) [2] of 360 ± 120 nM.
